Measured values taken from article PMC11987601.
Where “and” joins values, the source holds several entries; their conditions need not be identical. Identical values can stand only once.

Tests used:
[1] = molecular target: His6-SeFtsZ (Spiroplasma eriocheiris FtsZ) (Spiroplasma eriocheiris)
[2] = molecular target: His6-SeSepF (Spiroplasma eriocheiris SepF) (Spiroplasma eriocheiris); assay: BLI; as a1, in the presence of GTP
[3] = molecular target: His6-SeSepF (Spiroplasma eriocheiris SepF) (Spiroplasma eriocheiris); assay: BLI; His6-SeSepF immobilised on Ni-NTA biosensor tips (10 ug/ml), SeFtsZ or SeFtsZ L272E as analyte (0-100 ug/ml); Octet N1; 50 mM Tris-HCl pH 7.4, 100 mM KCl, 10 mM MgCl2, 0.02% Tween-20; no nucleotide (apo)

His6-SeSepF (Spiroplasma eriocheiris SepF) (Spiroplasma eriocheiris), sequence (partner, as listed by the source): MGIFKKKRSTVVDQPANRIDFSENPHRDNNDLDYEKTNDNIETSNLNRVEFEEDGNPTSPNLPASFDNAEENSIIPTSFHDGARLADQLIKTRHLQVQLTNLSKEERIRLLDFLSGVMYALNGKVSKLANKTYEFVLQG

Row | Substance | SeFtsZ retrieved from the pellet fraction with GTP after mixing with SeSepF (sedimentation assay of polymerization; 16% without SeSepF) [1] [%] | Kd [2] [nM] | Kd [3]
1 | His6-SeSepF (Spiroplasma eriocheiris SepF) (natural protein) | 28 |  | 
2 | SeFtsZ L272E mutant (from UniProt A0A0H3XMR3 1-411) (natural protein) |  | 700 | 980 nM
3 | Spiroplasma eriocheiris FtsZ, His-tag removed (from UniProt A0A0H3XMR3 1-411) (natural protein) |  | 53900 | 1040 nM and 1130 nM
